Experimental data reported in patent US20120238493A1 (INDIANA UNIVERSITY RESEARCH AND TECHNOLOGY, published 2012).
Bridges are numbered along the chain shown (N, C = ends). Where no end group is shown, it is not given here. [ ]: non-standard residue; d: D form. The star is where a group is joined. Palmitoyl = CCCCCCCCCCCCCCCC(=O)*; Aib = CC(C)(N)C(=O)O

T1: GIP receptor (UniProt P48546 22-466, limits assumed)
T1 sequence (looked up): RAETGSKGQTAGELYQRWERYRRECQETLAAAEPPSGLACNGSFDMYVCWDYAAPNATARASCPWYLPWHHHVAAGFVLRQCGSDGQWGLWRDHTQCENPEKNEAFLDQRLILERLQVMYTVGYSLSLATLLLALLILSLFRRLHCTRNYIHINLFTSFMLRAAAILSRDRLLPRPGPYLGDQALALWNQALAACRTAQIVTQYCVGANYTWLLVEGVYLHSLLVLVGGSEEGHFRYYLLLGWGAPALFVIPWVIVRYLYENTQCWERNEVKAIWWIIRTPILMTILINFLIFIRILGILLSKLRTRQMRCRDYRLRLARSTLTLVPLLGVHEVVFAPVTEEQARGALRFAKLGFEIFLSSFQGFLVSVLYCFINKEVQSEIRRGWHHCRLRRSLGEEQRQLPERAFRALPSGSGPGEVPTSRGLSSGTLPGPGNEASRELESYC

B1: mt-396 (SEQ ID NO: 16) (peptide)
peptide: YSQGTFTSDYSKYLDEIHQKDFVNWLLAGGPSSGAPPPS-NH2
modifications: lactam 16-20; N-terminus assumed
SMILES: CC[C@H](C)[C@@H]1NC(=O)[C@@H](NC(=O)[C@H](CC(=O)O)NC(=O)[C@H](CC(C)C)NC(=O)[C@H](Cc2ccc(O)cc2)NC(=O)[C@H](CCCCN)NC(=O)[C@H](CO)NC(=O)[C@H](Cc2ccc(O)cc2)NC(=O)[C@H](CC(=O)O)NC(=O)[C@H](CO)NC(=O)[C@@H](NC(=O)[C@H](Cc2ccccc2)NC(=O)[C@@H](NC(=O)CNC(=O)[C@H](CCC(N)=O)NC(=O)[C@H](CO)NC(=O)[C@@H](N)Cc2ccc(O)cc2)[C@@H](C)O)[C@@H](C)O)CCC(=O)NCCCC[C@@H](C(=O)N[C@@H](CC(=O)O)C(=O)N[C@@H](Cc2ccccc2)C(=O)N[C@H](C(=O)N[C@@H](CC(N)=O)C(=O)N[C@@H](Cc2c[nH]c3ccccc23)C(=O)N[C@@H](CC(C)C)C(=O)N[C@@H](CC(C)C)C(=O)N[C@@H](C)C(=O)NCC(=O)NCC(=O)N2CCC[C@H]2C(=O)N[C@@H](CO)C(=O)N[C@@H](CO)C(=O)NCC(=O)N[C@@H](C)C(=O)N2CCC[C@H]2C(=O)N2CCC[C@H]2C(=O)N2CCC[C@H]2C(=O)N[C@@H](CO)C(N)=O)C(C)C)NC(=O)[C@H](CCC(N)=O)NC(=O)[C@H](Cc2c[nH]cn2)NC1=O
B2: mt-395 (SEQ ID NO: 15) (peptide)
peptide: HSQGTFTSDYSKYLDEIHQKDFVNWLLAGGPSSGAPPPS-NH2
modifications: lactam 16-20; N-terminus assumed
SMILES: CC[C@H](C)[C@@H]1NC(=O)[C@@H](NC(=O)[C@H](CC(=O)O)NC(=O)[C@H](CC(C)C)NC(=O)[C@H](Cc2ccc(O)cc2)NC(=O)[C@H](CCCCN)NC(=O)[C@H](CO)NC(=O)[C@H](Cc2ccc(O)cc2)NC(=O)[C@H](CC(=O)O)NC(=O)[C@H](CO)NC(=O)[C@@H](NC(=O)[C@H](Cc2ccccc2)NC(=O)[C@@H](NC(=O)CNC(=O)[C@H](CCC(N)=O)NC(=O)[C@H](CO)NC(=O)[C@@H](N)Cc2c[nH]cn2)[C@@H](C)O)[C@@H](C)O)CCC(=O)NCCCC[C@@H](C(=O)N[C@@H](CC(=O)O)C(=O)N[C@@H](Cc2ccccc2)C(=O)N[C@H](C(=O)N[C@@H](CC(N)=O)C(=O)N[C@@H](Cc2c[nH]c3ccccc23)C(=O)N[C@@H](CC(C)C)C(=O)N[C@@H](CC(C)C)C(=O)N[C@@H](C)C(=O)NCC(=O)NCC(=O)N2CCC[C@H]2C(=O)N[C@@H](CO)C(=O)N[C@@H](CO)C(=O)NCC(=O)N[C@@H](C)C(=O)N2CCC[C@H]2C(=O)N2CCC[C@H]2C(=O)N2CCC[C@H]2C(=O)N[C@@H](CO)C(N)=O)C(C)C)NC(=O)[C@H](CCC(N)=O)NC(=O)[C@H](Cc2c[nH]cn2)NC1=O

Each binder was assayed against T1, GIP receptor (assay: cell-based or functional assay).

Row | Binder | EC50 (cAMP reporter) | relative activity (to native hormone)
1 | Y[Aib]EGTFISDYSIAMDKIHQQDFVNWLLAQKGKKNWLKHNITQ-NH2 (not fully specified) [mt-217 (SEQ ID NO: 19)] | 9.57 nM | 0.2%

Each binder was assayed against T2, GLP-1 receptor (UniProt P43220 24-463, limits assumed) (assay: cell-based or functional assay).

Row | Binder | EC50 (cAMP reporter) | relative activity (to native hormone)
2 | Y[Aib]EGTFISDYSIAMDKIHQQDFVNWLLAQKGKKNWLKHNITQ-NH2 (not fully specified) [mt-217 (SEQ ID NO: 19)] | 0.222 nM | 11.3%

The binders below were run against T3, glucagon receptor (UniProt P47871 26-477, limits assumed) (assay: cell-based or functional assay).
T3 sequence (P47871 26-477 limits assumed): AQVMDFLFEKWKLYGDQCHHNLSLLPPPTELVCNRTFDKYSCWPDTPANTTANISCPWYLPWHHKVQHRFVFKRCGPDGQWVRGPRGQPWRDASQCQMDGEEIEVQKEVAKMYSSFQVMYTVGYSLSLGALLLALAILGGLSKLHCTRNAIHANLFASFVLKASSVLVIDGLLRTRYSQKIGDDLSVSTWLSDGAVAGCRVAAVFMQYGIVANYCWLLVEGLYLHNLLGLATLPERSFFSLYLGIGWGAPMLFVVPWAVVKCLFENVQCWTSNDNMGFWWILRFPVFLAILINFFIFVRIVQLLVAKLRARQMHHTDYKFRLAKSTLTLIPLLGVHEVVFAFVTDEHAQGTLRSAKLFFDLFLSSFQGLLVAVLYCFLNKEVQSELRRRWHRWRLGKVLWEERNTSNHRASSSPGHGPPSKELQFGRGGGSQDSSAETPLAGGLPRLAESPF

Row | Binder | EC50 (cAMP reporter) | relative activity (to native hormone)
3 | Y[Aib]EGTFISDYSIAMDKIHQQDFVNWLLAQKGKKNWLKHNITQ-NH2 (not fully specified) [mt-217 (SEQ ID NO: 19)] | 13.9 nM | 0.82%

Biological target: T1, GIP receptor
Assay: cell-based or functional assay
Remark: another data set of the same source

Row | Binder | EC50 (cAMP reporter) | relative activity (to native hormone)
4 | B1 | 3.4 pM | 403%
5 | B2 | 2.5 pM | 537%

Biological target: T2, GLP-1 receptor
Assay: cell-based or functional assay
Remark: another data set of the same source

Row | Binder | EC50 (cAMP reporter) | relative activity (to native hormone)
6 | B1 | 9.3 pM | 262%
7 | B2 | 7.6 pM | 322%

Biological target: T3, glucagon receptor
Assay: cell-based or functional assay
Remark: another data set of the same source

Row | Binder | EC50 (cAMP reporter) | relative activity (to native hormone)
8 | B1 | 2.9 nM | 1.03%
9 | B2 | 3.41 nM | 0.87%

Biological target: T1, GIP receptor
Assay: cell-based or functional assay
Remark: another data set of the same source

Row | Binder | EC50 (cAMP reporter)
10 | H[Aib]QGTFTSDK(Palmitoyl)SKYLD[Aib]RAAQDFVQWLVKGGPSSGAPPPS-NH2 [Analog No. 53: Aib2, K10acyl, Aib16, A18, V27, K28, G29 + CEX (SEQ ID NO: 35)] | 0.073 nM
11 | H[Aib]EGTFTSDKSKYLDERRA[Aib]EFVQWLLDT-NH2 (not fully specified (residue 10)) [Analog No. 64: Aib2, E3, K10acyl, E16, Aib20, E21, L27, D28 (SEQ ID NO: 40)] | 0.024 nM
12 | H[Aib]EGTFTSDK(Palmitoyl)SKYLDERRA[Aib]DFVQWLLDGGPSSGAPPPS-NH2 [Analog No. 65: Aib2, E3, K10acyl, E16, Aib20, L27, D28, G29 + CEX (SEQ ID NO: 41)] | 0.013 nM
13 | H[Aib]QGTFTSDKSKYLD[Aib]RAAQDFVQWLKDGGPSSGAPPPS-NH2 (not fully specified (residue 10)) [Analog No. 54: Aib2, K10acyl, Aib16, A18, K27, D28, G29 + CEX (SEQ ID NO: 36)] | 0.171 nM
14 | H[Aib]QGTFTSDKSKYLD[Aib]RAAQDFVQWLMDGGPSSGAPPPS-NH2 (not fully specified (residue 10)) [Analog No. 49: Aib2, K10acyl, Aib16, A10, D28, G29 + CEX (SEQ ID NO: 33)] | 0.248 nM

Biological target: T2, GLP-1 receptor
Assay: cell-based or functional assay
Remark: another data set of the same source

Row | Binder | EC50 (cAMP reporter)
15 | H[Aib]QGTFTSDK(Palmitoyl)SKYLD[Aib]RAAQDFVQWLVKGGPSSGAPPPS-NH2 [Analog No. 53: Aib2, K10acyl, Aib16, A18, V27, K28, G29 + CEX (SEQ ID NO: 35)] | 5 pM
16 | H[Aib]EGTFTSDKSKYLDERRA[Aib]EFVQWLLDT-NH2 (not fully specified (residue 10)) [Analog No. 64: Aib2, E3, K10acyl, E16, Aib20, E21, L27, D28 (SEQ ID NO: 40)] | 6 pM
17 | H[Aib]EGTFTSDK(Palmitoyl)SKYLDERRA[Aib]DFVQWLLDGGPSSGAPPPS-NH2 [Analog No. 65: Aib2, E3, K10acyl, E16, Aib20, L27, D28, G29 + CEX (SEQ ID NO: 41)] | 6 pM
18 | H[Aib]QGTFTSDKSKYLD[Aib]RAAQDFVQWLKDGGPSSGAPPPS-NH2 (not fully specified (residue 10)) [Analog No. 54: Aib2, K10acyl, Aib16, A18, K27, D28, G29 + CEX (SEQ ID NO: 36)] | 4 pM
19 | H[Aib]QGTFTSDKSKYLD[Aib]RAAQDFVQWLMDGGPSSGAPPPS-NH2 (not fully specified (residue 10)) [Analog No. 49: Aib2, K10acyl, Aib16, A10, D28, G29 + CEX (SEQ ID NO: 33)] | 4 pM

Biological target: T3, glucagon receptor
Assay: cell-based or functional assay
Remark: another data set of the same source

Row | Binder | EC50 (cAMP reporter)
20 | H[Aib]QGTFTSDK(Palmitoyl)SKYLD[Aib]RAAQDFVQWLVKGGPSSGAPPPS-NH2 [Analog No. 53: Aib2, K10acyl, Aib16, A18, V27, K28, G29 + CEX (SEQ ID NO: 35)] | 0.011 nM
21 | H[Aib]EGTFTSDKSKYLDERRA[Aib]EFVQWLLDT-NH2 (not fully specified (residue 10)) [Analog No. 64: Aib2, E3, K10acyl, E16, Aib20, E21, L27, D28 (SEQ ID NO: 40)] | 0.042 nM
22 | H[Aib]EGTFTSDK(Palmitoyl)SKYLDERRA[Aib]DFVQWLLDGGPSSGAPPPS-NH2 [Analog No. 65: Aib2, E3, K10acyl, E16, Aib20, L27, D28, G29 + CEX (SEQ ID NO: 41)] | 0.221 nM
23 | H[Aib]QGTFTSDKSKYLD[Aib]RAAQDFVQWLKDGGPSSGAPPPS-NH2 (not fully specified (residue 10)) [Analog No. 54: Aib2, K10acyl, Aib16, A18, K27, D28, G29 + CEX (SEQ ID NO: 36)] | 0.008 nM
24 | H[Aib]QGTFTSDKSKYLD[Aib]RAAQDFVQWLMDGGPSSGAPPPS-NH2 (not fully specified (residue 10)) [Analog No. 49: Aib2, K10acyl, Aib16, A10, D28, G29 + CEX (SEQ ID NO: 33)] | 0.005 nM
